Patent US20200048333A1 (THOMAS JEFFERSON UNIVERSITY, published 2020)
One block for each binder: values may come before it. No end group written: not given here.

What was measured:
[1] = target: T1, GDFYRA (also: biotinylated (position not given here)); assay: blot: antibody variant immobilized on nitrocellulose, biotinylated peptide bound, chemiluminescence
T1 construct: also called biotinylated α2Ct peptide GDFYRA
T1 peptide: GDFYRA

[2] = target: T2, GYDGDF (also: biotinylated (position not given here)); assay: as above
T2 construct: also called biotinylated α2Ct peptide GYDGDF
T2 peptide: GYDGDF

[3] = target: T3, human procollagen I isolated from human dermal fibroblasts (human, UniProt P02452 23-1464; P08123 23-1366); assay: biosensor; scFv-procollagen I
T3 construct: Native triple-helical heterotrimer; also called native α2Ct present in procollagen I
Protocol: (§1) In brief, human procollagen I isolated from human dermal fibroblasts and synthetic α2Ct were immobilized on separate channels of a biosensor. Subsequently, the full-length AFA or its Fab fragments, generated by digestion with papain, were added at various concentrations to a sensor to record the association and the dissociation phases. Data from the AFA binding interactions and the Fab binding interactions were then used to calculate the KD values. In a separate set of experiments, the binding interactions of the scFv variant consisting of the VL and VH domains connected via a peptide linker were also tested using a biosensor. In these assays, the scFv-procollagen I binding interactions were studied.

[4] = target: T3, human procollagen I isolated from human …; assay: biosensor; procollagen I immobilized, Fab in solution
Protocol: as §1

[5] = target: T4, synthetic full-length α2(I) C-telopeptide of human collagen I (α2Ct) (human); assay: biosensor; synthetic α2Ct immobilized, Fab in solution
T4 construct: also called synthetic α2Ct; full-length α2Ct
T4 peptide: GGGYDFGYDGDFYRA
Protocol: as §1

[6] = target: T5, α2Ct fragment DGDFY (human); assay: biosensor; AFA immobilized, peptide in solution
T5 construct: One of the overlapping peptides spanning the human α2Ct; also called A2_DGDFY
T5 peptide: DGDFY
Protocol: (§2) Kinetics of the binding of the AFA to defined α2Ct epitopes. Employing a biosensor, we also analyzed the kinetics of the binding of the AFA with defined epitopes of the human α2Ct. For these assays we employed the AFA, control human IgG, and a set of overlapping peptides spanning the α2Ct (Table 3). In brief, the AFA and control human IgG were covalently immobilized on separate channels of a sensor chip. Subsequently, the binding of the α2Ct fragments to the immobilized antibodies was analyzed. Finally, the dissociation equilibrium constant (KD) values for each α2Ct fragment were calculated (Table 1).

[7] = target: T6, α2Ct fragment DFGYD (human); assay: biosensor; AFA immobilized, peptide in solution
T6 construct: One of the overlapping peptides spanning the human α2Ct
T6 peptide: DFGYD
Protocol: as §2

[8] = target: T7, α2Ct fragment GYDGD (human); assay: biosensor; AFA immobilized, peptide in solution
T7 construct: One of the overlapping peptides spanning the human α2Ct
T7 peptide: GYDGD
Protocol: as §2

[9] = target: T8, α2Ct fragment DFYRA (human); assay: biosensor; AFA immobilized, peptide in solution
T8 construct: One of the overlapping peptides spanning the human α2Ct
T8 peptide: DFYRA
Protocol: as §2

[10] = target: T9, α2Ct fragment GYDFG (human); assay: biosensor; AFA immobilized, peptide in solution
T9 construct: One of the overlapping peptides spanning the human α2Ct
T9 peptide: GYDFG
Protocol: as §2

[11] = target: T3, human procollagen I isolated from human …; assay: biosensor; procollagen I immobilized, antibody in solution
Protocol: as §1

[12] = target: T4, synthetic full-length α2(I) …; assay: biosensor; synthetic α2Ct immobilized, antibody in solution
Protocol: as §1

[13] = target: T4, synthetic full-length α2(I) …; assay: biosensor; table of α2Ct fragments binding to AFA
Protocol: as §2

T3 sequence (P02452 23-1464, chain 1 of 2): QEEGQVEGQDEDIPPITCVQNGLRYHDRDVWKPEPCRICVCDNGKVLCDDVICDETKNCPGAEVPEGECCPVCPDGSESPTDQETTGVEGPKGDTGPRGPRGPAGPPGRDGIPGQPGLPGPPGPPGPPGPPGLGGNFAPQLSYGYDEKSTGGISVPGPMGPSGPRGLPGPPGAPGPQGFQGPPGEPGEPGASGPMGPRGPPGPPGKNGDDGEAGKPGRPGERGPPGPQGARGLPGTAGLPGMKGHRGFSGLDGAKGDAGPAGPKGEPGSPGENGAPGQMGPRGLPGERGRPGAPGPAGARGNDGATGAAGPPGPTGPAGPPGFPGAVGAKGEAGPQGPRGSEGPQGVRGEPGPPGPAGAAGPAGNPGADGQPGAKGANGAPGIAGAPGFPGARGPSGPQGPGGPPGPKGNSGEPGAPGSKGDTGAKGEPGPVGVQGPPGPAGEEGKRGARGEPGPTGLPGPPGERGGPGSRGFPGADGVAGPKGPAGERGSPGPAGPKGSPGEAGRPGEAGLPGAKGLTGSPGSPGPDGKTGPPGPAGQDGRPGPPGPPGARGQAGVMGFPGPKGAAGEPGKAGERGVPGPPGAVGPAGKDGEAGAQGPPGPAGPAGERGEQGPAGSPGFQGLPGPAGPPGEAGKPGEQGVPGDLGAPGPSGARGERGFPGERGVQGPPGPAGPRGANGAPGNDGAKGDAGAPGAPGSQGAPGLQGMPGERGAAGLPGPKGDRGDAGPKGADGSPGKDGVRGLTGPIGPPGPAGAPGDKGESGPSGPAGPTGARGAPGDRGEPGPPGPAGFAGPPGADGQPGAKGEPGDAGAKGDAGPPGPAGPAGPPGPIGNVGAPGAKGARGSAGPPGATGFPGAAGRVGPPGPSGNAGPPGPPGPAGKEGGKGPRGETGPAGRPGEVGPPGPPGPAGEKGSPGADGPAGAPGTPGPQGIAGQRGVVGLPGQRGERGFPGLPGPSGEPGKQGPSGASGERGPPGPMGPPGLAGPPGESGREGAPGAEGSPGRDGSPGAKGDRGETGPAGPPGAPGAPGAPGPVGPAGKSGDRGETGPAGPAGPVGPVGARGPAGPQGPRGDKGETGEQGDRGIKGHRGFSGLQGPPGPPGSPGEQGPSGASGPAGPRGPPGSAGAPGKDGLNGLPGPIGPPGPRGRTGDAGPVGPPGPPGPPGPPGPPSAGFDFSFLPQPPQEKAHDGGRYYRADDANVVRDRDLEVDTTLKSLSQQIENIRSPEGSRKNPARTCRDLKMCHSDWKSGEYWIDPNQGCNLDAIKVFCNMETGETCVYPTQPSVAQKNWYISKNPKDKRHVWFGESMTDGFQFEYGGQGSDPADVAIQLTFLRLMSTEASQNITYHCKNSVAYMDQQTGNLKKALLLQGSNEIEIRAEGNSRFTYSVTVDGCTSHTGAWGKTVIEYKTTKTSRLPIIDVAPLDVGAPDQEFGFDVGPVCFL
T3 sequence (P08123 23-1366, chain 2 of 2): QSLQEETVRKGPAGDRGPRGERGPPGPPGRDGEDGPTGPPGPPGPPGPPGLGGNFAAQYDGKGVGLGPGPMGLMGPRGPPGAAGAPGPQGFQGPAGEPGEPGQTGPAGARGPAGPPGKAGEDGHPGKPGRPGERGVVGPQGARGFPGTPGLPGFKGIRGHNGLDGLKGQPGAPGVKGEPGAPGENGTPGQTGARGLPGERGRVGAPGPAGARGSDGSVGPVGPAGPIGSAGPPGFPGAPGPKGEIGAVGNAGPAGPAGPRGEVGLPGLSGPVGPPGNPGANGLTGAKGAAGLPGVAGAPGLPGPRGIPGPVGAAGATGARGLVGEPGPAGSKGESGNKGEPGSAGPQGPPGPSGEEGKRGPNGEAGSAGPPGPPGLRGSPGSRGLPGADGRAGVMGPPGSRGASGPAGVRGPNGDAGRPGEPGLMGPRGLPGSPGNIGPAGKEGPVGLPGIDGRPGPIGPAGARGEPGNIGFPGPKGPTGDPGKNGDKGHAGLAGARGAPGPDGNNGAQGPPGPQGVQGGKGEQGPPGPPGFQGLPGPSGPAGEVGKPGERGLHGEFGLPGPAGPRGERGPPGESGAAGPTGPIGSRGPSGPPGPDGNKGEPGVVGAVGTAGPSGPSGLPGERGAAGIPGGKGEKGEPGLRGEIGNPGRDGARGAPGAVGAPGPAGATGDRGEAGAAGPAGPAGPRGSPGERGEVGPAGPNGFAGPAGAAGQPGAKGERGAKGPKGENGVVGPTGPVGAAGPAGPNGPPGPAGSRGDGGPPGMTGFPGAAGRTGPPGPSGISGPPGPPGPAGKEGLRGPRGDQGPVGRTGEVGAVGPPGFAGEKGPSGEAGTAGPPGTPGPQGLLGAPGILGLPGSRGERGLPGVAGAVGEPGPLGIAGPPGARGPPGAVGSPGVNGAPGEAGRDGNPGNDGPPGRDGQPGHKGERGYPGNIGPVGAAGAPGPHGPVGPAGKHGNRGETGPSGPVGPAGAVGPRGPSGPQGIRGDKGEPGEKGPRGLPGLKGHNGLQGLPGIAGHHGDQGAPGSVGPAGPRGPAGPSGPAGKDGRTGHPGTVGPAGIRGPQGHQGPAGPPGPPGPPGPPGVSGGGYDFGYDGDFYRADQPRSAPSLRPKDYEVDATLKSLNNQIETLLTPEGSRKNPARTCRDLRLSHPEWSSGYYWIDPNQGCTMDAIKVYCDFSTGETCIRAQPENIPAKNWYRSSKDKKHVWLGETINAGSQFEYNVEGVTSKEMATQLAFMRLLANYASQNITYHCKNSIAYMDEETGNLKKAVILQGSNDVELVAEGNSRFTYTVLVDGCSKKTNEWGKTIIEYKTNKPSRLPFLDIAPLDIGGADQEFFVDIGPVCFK

Kd [3]: 0.075 µM
B2: scFv variant of the AFA consisting of the VL and VH domains connected via a peptide linker (scFv, V domains shown, not shown: small tags and cut ends)
VL: DIVMSQSPSSLAVSAGEKVTMSCKSSQSLLNSRTRKNNLAWYQQKPGQSPKLLIYWASTRESGVPDRFTGSGSGTDFTLTISSVQAEDLAVYYCKQSYNLWTFGGGTKLEIKR
V domain: AQIQLVQSGPELKKPGETVKISCKASGYTFTDYPLHWVKQAPGKGLQWMAWINTETGEPTYADDFTGRFAFSLETSASTAYLQINNLKNEDTATYFCVRGYYYYWGQGTTLSVSS
notes: The domain order VL-linker-VH follows the wording 'VL and VH domains connected via a peptide linker'; also called single chain antibody

Kd [6]: 22.2 µM | Kd [7]: 6400 µM | Kd [8]: 604 µM | Kd [9]: 449 µM | Kd [10]: 259 µM | Kd [11]: 0.000663 µM | Kd [12]: 21 pM | Kd [13]: 21 pM
B4: full-length anti-fibrotic antibody (AFA), monoclonal anti-collagen I antibody against the α2(I) C-telopeptide (antibody, V domains shown)
VH: AQIQLVQSGPELKKPGETVKISCKASGYTFTDYPLHWVKQAPGKGLQWMAWINTETGEPTYADDFTGRFAFSLETSASTAYLQINNLKNEDTATYFCVRGYYYYWGQGTTLSVSS
VL: DIVMSQSPSSLAVSAGEKVTMSCKSSQSLLNSRTRKNNLAWYQQKPGQSPKLLIYWASTRESGVPDRFTGSGSGTDFTLTISSVQAEDLAVYYCKQSYNLWTFGGGTKLEIKR
notes: The control was human IgG; also called full-length AFA; Full-length AFA antibody

The next lines start with the binder.

B1: chimeric human IgG-type AFA (antibody, V domains shown)
VH: AQIQLVQSGPELKKPGETVKISCKASGYTFTDYPLHWVKQAPGKGLQWMAWINTETGEPTYADDFTGRFAFSLETSASTAYLQINNLKNEDTATYFCVRGYYYYWGQGTTLSVSS
VL: DIVMSQSPSSLAVSAGEKVTMSCKSSQSLLNSRTRKNNLAWYQQKPGQSPKLLIYWASTRESGVPDRFTGSGSGTDFTLTISSVQAEDLAVYYCKQSYNLWTFGGGTKLEIKR
notes: also called chIgG; chlgG
binding result [1]: binds | binding result [2]: binds

B3: Fab fragment of the AFA (Fab, V domains shown)
VH: AQIQLVQSGPELKKPGETVKISCKASGYTFTDYPLHWVKQAPGKGLQWMAWINTETGEPTYADDFTGRFAFSLETSASTAYLQINNLKNEDTATYFCVRGYYYYWGQGTTLSVSS
VL: DIVMSQSPSSLAVSAGEKVTMSCKSSQSLLNSRTRKNNLAWYQQKPGQSPKLLIYWASTRESGVPDRFTGSGSGTDFTLTISSVQAEDLAVYYCKQSYNLWTFGGGTKLEIKR
notes: also called Fab AFA antibody; Fab fragments of the AFA
Kd [4]: 0.268 µM | Kd [5]: 0.057 µM

B5: original mouse IgA-type AFA (antibody, V domains shown)
VH: AQIQLVQSGPELKKPGETVKISCKASGYTFTDYPLHWVKQAPGKGLQWMAWINTETGEPTYADDFTGRFAFSLETSASTAYLQINNLKNEDTATYFCVRGYYYYWGQGTTLSVSS
VL: DIVMSQSPSSLAVSAGEKVTMSCKSSQSLLNSRTRKNNLAWYQQKPGQSPKLLIYWASTRESGVPDRFTGSGSGTDFTLTISSVQAEDLAVYYCKQSYNLWTFGGGTKLEIKR
notes: Mouse IgA from a hybridoma, with heavy α chain and light κ chain; also called native mouse IgA-type AFA; original IgA-type anti-α2Ct antibody
binding result [1]: binds | binding result [2]: binds
